We go through 2 molecules from patent US20250289865A1 (TIOC THERAPEUTICS, published 2025).

Assay [1] has as its target T1, AFP peptide on HLA-A*02:01 (human).
T1 peptide: FMNKFIYEI
As to the kind of experiment: killing.

In assay [2] the target is peptide on A2 positive (human). Kind of assay: LDH release; CD8+ T cells, E:T 1:1; AFP-negative, A2-positive control cells. No unit is printed with the value.; fusion: antibody heavy chain variable region (Gln105Cys) on the beta chain, with free VL Ala43Cys. As to conditions: chains Valpha:Vbeta. (In general: LDH in the medium is a marker of cell lysis.)
Assay [3] addresses … short peptide (AFP 158-166) presented on the HLA-A*0201 molecule. Kind of assay: cell-based or functional assay.

B1: AFP TCR (TCR, V domains shown)
Valpha: SQQGEEDPQALSIQEGENATMNCSYKDRITNLQWYRQNSGRGLVHLILIRSNEREKHSGRLRVTLDTSKKSSSLLITASRAADTASYFCATDLEAEYKYIFGTGTRLKVLA
Vbeta: ETGVTQSPTHLIKTRGQQVTLRCSSQSGHNTVSWYQQALGQGPQFIFQYYRQVANGRGNFPPRFSGLQFPNYSSELNVNALELDDSALYLCASSKDAGPVFFGQGTRLTVV
B1: in assay [1], the binding result is “recognises”. The molecule also came in with an EC50 of fusion protein in killing in assay [2] of 2700 nM.

B2: VH105-TCR β-AFP multi-domain bifunctional fusion molecule (other)
TCR alpha: SQQGEEDPQALSIQEGENATMNCSYKDRITNLQWYRQNSGRGLVHLILIRSNEREKHSGRLRVTLDTSKKSSSLLITASRAADTASYFCATDLEAEYKYIFGTGTRLKVLANIQNPDPAVYQLRDSKSSDKSVCLFTDFDSQTNVSQSKDSDVYITDKTVLDMRSMDFKSNSAVAWSNKSDFACANAFNNSIIPEDTFFCSPESS
chain: EVQLVESGGGLVQPGGSLRLSCAASGYSFTGYTMNWVRQAPGKGLEWVALINPYKGVSTYNQKFKDRFTISVDKSKNTAYLQMNSLRAEDTAVYYCARSGYYGDSDWYFDVWGCGTLVTVSSGGGGSETGVTQSPTHLIKTRGQQVTLRCSSQSGHNTVSWYQQALGQGPQFIFQYYRQVANGRGNFPPRFSGLQFPNYSSELNVNALELDDSALYLCASSKDAGPVFFGQGTRLTVVEDLKNVFPPEVAVFEPSECEISHTQKATLVCLATGFYPDHVELSWWVNGKEVHSGVSTDPQPLKEQPALNDSRYALSSRLRVSATFWQNPRNHFRCQVQFYGLSENDEWTQDRAKPVTQIVSAEAWGRAD
VL: DIQMTQSPSSLSASVGDRVTITCRASQDIRNYLNWYQQKPGKCPKLLIYYTSRLESGVPSRFSGSGSGTDYTLTISSLQPEDFATYYCQQGNTLPWTFGQGTKVEIKR
Take B2: the “EC50 of CD8+ T cell killing (LDH release), HepG2 (A2 positive, AFP positive)” value in assay [3] amounted to 10.5 nM.
